From patent publication US20250290040A1

Target: IFNγR-IL2/IL15R signal converter
Test: cell-based or functional assay

Sequence of IFNγR-IL2/IL15R signal converter (chain, as listed by the source limits assumed, chain 1 of 2): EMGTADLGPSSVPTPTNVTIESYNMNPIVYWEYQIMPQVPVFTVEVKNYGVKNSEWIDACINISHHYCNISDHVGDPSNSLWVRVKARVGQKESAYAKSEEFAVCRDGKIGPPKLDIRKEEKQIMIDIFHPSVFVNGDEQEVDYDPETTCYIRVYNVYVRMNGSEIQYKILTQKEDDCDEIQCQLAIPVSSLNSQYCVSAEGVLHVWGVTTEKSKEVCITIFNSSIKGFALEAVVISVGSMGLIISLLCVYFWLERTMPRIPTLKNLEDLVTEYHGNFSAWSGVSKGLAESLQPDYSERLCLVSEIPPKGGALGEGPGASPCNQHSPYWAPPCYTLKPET
Sequence of IFNγR-IL2/IL15R signal converter (chain, as listed by the source limits assumed, chain 2 of 2): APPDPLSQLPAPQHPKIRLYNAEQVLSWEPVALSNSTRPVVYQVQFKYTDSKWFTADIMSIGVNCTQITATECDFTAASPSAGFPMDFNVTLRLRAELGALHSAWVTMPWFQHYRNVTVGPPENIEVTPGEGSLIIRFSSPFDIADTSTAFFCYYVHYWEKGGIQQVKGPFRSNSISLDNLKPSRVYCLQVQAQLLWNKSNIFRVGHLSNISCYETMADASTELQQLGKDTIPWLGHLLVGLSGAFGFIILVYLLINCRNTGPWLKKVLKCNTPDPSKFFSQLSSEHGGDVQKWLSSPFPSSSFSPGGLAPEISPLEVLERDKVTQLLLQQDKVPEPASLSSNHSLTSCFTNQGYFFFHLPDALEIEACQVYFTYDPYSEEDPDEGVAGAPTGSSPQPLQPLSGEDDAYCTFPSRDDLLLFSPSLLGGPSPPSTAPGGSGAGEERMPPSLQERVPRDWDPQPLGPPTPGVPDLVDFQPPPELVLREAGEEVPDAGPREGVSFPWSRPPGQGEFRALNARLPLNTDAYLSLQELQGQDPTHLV

- cell proliferation (Tag-it violet cell tracking staining), 6 days under IFN-γ treatment: 40%
- percentage of proliferation (flow cytometry, Tag-it Violet), 6 days, 5 ng/mL IFN-γ: 42.3%
Substance: IFN-γ (from UniProt P01579 24-166) (ligand)
